US20160039913A1 (LFB USA, published 2016)

B1: b12 IgA2 purified from CHO cells (antibody, V domains shown)
VH: QVQLVQSGAEVKKPGASVKVSCQASGYRFSNFVIHWVRQAPGQRFEWMGWINPYNGNKEFSAKFQDRVTFTADTSANTAYMELRSLRSADTAVYYCARVGPYSWDDSPQDNYYMDVWGQGTTVIVSS
VL: EIVLTQAPGTLSLSPGERATFSCRSSHSIRSRRVAWYQHKPGQAPRLVIHGVSNRASGISDRFSGSGSGTDFTLTITRVEPEDFALYYCQVYGASSYTFGQGTKLERKR
B2: b12 IgA2 purified from milk (antibody, V domains shown)
VH: QVQLVQSGAEVKKPGASVKVSCQASGYRFSNFVIHWVRQAPGQRFEWMGWINPYNGNKEFSAKFQDRVTFTADTSANTAYMELRSLRSADTAVYYCARVGPYSWDDSPQDNYYMDVWGQGTTVIVSS
VL: EIVLTQAPGTLSLSPGERATFSCRSSHSIRSRRVAWYQHKPGQAPRLVIHGVSNRASGISDRFSGSGSGTDFTLTITRVEPEDFALYYCQVYGASSYTFGQGTKLERKR
B3: b12 IgA2 expressed in milk (antibody, V domains shown)
VH: QVQLVQSGAEVKKPGASVKVSCQASGYRFSNFVIHWVRQAPGQRFEWMGWINPYNGNKEFSAKFQDRVTFTADTSANTAYMELRSLRSADTAVYYCARVGPYSWDDSPQDNYYMDVWGQGTTVIVSS
VL: EIVLTQAPGTLSLSPGERATFSCRSSHSIRSRRVAWYQHKPGQAPRLVIHGVSNRASGISDRFSGSGSGTDFTLTITRVEPEDFALYYCQVYGASSYTFGQGTKLERKR
B4: F425-A1g8 IgG1 antibody variant (antibody, V domains shown)
VH: QEQLVESGGGVVQPGRSLRLSCEASGFIFSAFVLHWVRQAPGKGLEWVAVVWYDGNSKYYADSVKGRFTISRDTSQNTLHLQMDSLRPEDTAVYYCAREWVADDDTFDGFDVWGQGTMVTVSS
VL: EIVLSQSPATLSLSPGERATLSCRASQSVTNSLAWYQQKPGQAPRLLIYDASNRATGIPARFSGSGSGTDFTLTISSLEPEDFAVYYCQQRSNWPPEVTFGPGTKVDIKR
B5: F425-A1g8 IgA1 antibody variant (antibody)
heavy: QEQLVESGGGVVQPGRSLRLSCEASGFIFSAFVLHWVRQAPGKGLEWVAVVWYDGNSKYYADSVKGRFTISRDTSQNTLHLQMDSLRPEDTAVYYCAREWVADDDTFDGFDVWGQGTMVTVSSASLTSPKVFPLSLCSTQPDGNVVIACLVQGFFPQEPLSVTWSESGQGVTARNFPPSQDASGDLYTTSSQLTLPATQCLAGKSVTCHVKHYTNPSQDVTVPCPVPSTPPTPSPSTPPTPSPSCCHPRLSLHRPALEDLLLGSEANLTCTLTGLRDASGVTFTWTPSSGKSAVQGPPDRDLCGCYSVSSVLSGCAEPWNHGKTFTCTAAYPESKTPLTATLSKSGNTFRPEVHLLPPPSEELALNELVTLTCLARGFSPKDVLVRWLQGSQELPREKYLTWASRQEPSQGTTTFAVTSILRVAAEDWKKGDTFSCMVGHEALPLAFTQKTIDRLAGKPTHVNVSVVMAEVDGTCY
light: not shown

Experiments:
Experiment in all cases: cell-based or functional assay
HIV-1 93MW960 gp120 [1] = biological target: T1, HIV-1 93MW960 gp120 (HIV-1, isolate 93MW960)
HIV-1 89.6 gp120 [2] = biological target: T2, HIV-1 89.6 gp120 (HIV-1, isolate 89.6, UniProt Q73372 32-508)
HIV-1 JR-FL gp120 [3] = biological target: T3, HIV-1 JR-FL gp120 (HIV-1, isolate JR-FL)
HIV-1 SF162 gp120 [4] = biological target: T4, HIV-1 SF162 gp120 (HIV-1, isolate SF162, UniProt P19550 32-502)
HIV-1 BaL gp120 [5] = biological target: T5, HIV-1 BaL gp120 (HIV-1, isolate BaL)
HIV-1 89.6 gp120 [6] = biological target: T2, HIV-1 89.6 gp120; set-up: unit not given beside the values
HIV-1 SF162 gp120 [7] = biological target: T4, HIV-1 SF162 gp120; set-up: unit not given beside the values
HIV-1 93MW960 gp120 [8] = biological target: T1, HIV-1 93MW960 gp120; remark: listed apart in the source
HIV-1 89.6 gp120 [9] = biological target: T2, HIV-1 89.6 gp120; remark: listed apart in the source
HIV-1 JR-FL gp120 [10] = biological target: T3, HIV-1 JR-FL gp120; remark: listed apart in the source
HIV-1 SF162 gp120 [11] = biological target: T4, HIV-1 SF162 gp120; remark: listed apart in the source
HIV-1 BaL gp120 [12] = biological target: T5, HIV-1 BaL gp120; remark: listed apart in the source
HIV-1 67970 gp120 = HIV-1 67970 gp120 (HIV-1, isolate 67970)
HIV-1 JR-FL gp120 [13] = biological target: T3, HIV-1 JR-FL gp120; remark: listed apart in the source

| Binder | IC50, ADCVI assay with PMN (+ PMN), 93MW960-infected PBMC (HIV-1 93MW960 gp120 [1]) | IC50, ADCVI assay without PMN (- PMN), 93MW960-infected PBMC (HIV-1 93MW960 gp120 [1]) | IC50, ADCVI assay with PMN (+ PMN), 89.6-infected PBMC (HIV-1 89.6 gp120 [2]) | IC50, ADCVI assay without PMN (- PMN), 89.6-infected PBMC (HIV-1 89.6 gp120 [2]) | IC50, ADCVI assay with PMN (+ PMN), JR-FL-infected PBMC (HIV-1 JR-FL gp120 [3]) | IC50, ADCVI assay without PMN (- PMN), JR-FL-infected PBMC (HIV-1 JR-FL gp120 [3]) | IC50, ADCVI assay with PMN (+ PMN), SF162-infected PBMC (HIV-1 SF162 gp120 [4]) | IC50, ADCVI assay without PMN (- PMN), SF162-infected PBMC (HIV-1 SF162 gp120 [4]) | IC50, ADCVI assay with PMN (+ PMN), BaL-infected PBMC (HIV-1 BaL gp120 [5]) | IC50, ADCVI assay without PMN (- PMN), BaL-infected PBMC (HIV-1 BaL gp120 [5]) | IC90, neutralization of HIV 89.6 (TZM-bl assay) (HIV-1 89.6 gp120 [6]) | IC90, neutralization of HIV SF162 (TZM-bl assay) (HIV-1 SF162 gp120 [7]) | IC50, ADCVI with neutrophils, 93MW960-infected PBMC (HIV-1 93MW960 gp120 [8]) | IC50, ADCVI with neutrophils, 89.6-infected PBMC (HIV-1 89.6 gp120 [9]) | IC50, ADCVI with neutrophils, JR-FL-infected PBMC (HIV-1 JR-FL gp120 [10]) | IC50, ADCVI with neutrophils, SF162-infected PBMC (HIV-1 SF162 gp120 [11]) | IC50, ADCVI with neutrophils, BaL-infected PBMC (HIV-1 BaL gp120 [12]) | IC50, neutralization of HIV-1 67970 (TZM-bl cells, no sCD4) (HIV-1 67970 gp120) | IC50, neutralization of HIV-1 JR-FL (TZM-bl cells, no sCD4) (HIV-1 JR-FL gp120 [13]) |
| --- | --- | --- | --- | --- | --- | --- | --- | --- | --- | --- | --- | --- | --- | --- | --- | --- | --- | --- | --- |
| B1 | 10 µg/mL | > 20 µg/mL | 14.5 µg/mL | > 20 µg/mL | > 20 µg/mL | > 20 µg/mL | 0.3 µg/mL | 9.5 µg/mL | 2.1 µg/mL | > 20 µg/mL | 6.75 | 1.03 |  |  |  |  |  |  |  |
| B2 | 17.5 µg/mL | > 20 µg/mL | 17.1 µg/mL | > 20 µg/mL | > 20 µg/mL | > 20 µg/mL | 0.3 µg/mL | 2.1 µg/mL | 2.2 µg/mL | 13.1 µg/mL | 8.37 | 0.79 |  |  |  |  |  |  |  |
| B3 | 3.3 µg/mL | > 20 µg/mL | 3.9 µg/mL | 4.8 µg/mL |  | 9.6 µg/mL | 0.4 µg/mL | 6.6 µg/mL | 2.3 µg/mL | 19.3 µg/mL | 1.85 | 0.34 |  |  |  |  |  |  |  |
| B4 |  |  |  |  |  |  |  |  |  |  |  |  | 9.5 µg/mL | > 40 µg/mL | > 40 µg/mL | > 40 µg/mL | > 40 µg/mL | > 40 µg/mL | > 40 µg/mL |
| B5 |  |  |  |  |  |  |  |  |  |  |  |  | 18.3 µg/mL | > 40 µg/mL | 16.6 µg/mL | 6.1 µg/mL | > 40 µg/mL | 23.3 µg/mL | 1.73 µg/mL |
